Experimental data as given in article PMC3125217.

Columns and labels:
Assay in all cases: inhibition of PE/PC monolayer binding (surface pressure, Wilhelmy technique); spectrin polypeptides preincubated 30 min at room temperature with ankSBD, then injected under a PE/PC 3:2 monolayer; 5 mM Tris/HCl pH 7.5, 0.5 mM EDTA, 150 mM NaCl, 0.5 mM dithiothreitol, 1 mM NaN3; 21°C
[1] = target: ankBDn triple mutant SSSW (W1771S, L1775S, M1778S) (UniProt P11277)
[2] = target: recombinant ankyrin-binding domain of erythroid β-spectrin (ankBDn), wild type (UniProt P11277)
[3] = target: ankBDn triple mutant CLSC (W1771C, M1778S, W1779C) (UniProt P11277)

Which results are given for “recombinant spectrin-binding domain of erythrocyte ankyrin (ankSBD) (from UniProt P16157 1-1881) (domain or fragment)”?
Ki [1]: 0.2 nM; Ki [2]: 0.15 nM; Ki [3]: 0.17 nM
